Laboratory results reported in patent US20230372484A1 (VOR BIOPHARMA, published 2023).
Each block holds one binder with its values, some of them ahead of it.

Biological target: CD33 (UniProt P20138 18-364, limits assumed)
Experiment: cell-based or functional assay

Sequence of CD33 (P20138 18-364 limits assumed): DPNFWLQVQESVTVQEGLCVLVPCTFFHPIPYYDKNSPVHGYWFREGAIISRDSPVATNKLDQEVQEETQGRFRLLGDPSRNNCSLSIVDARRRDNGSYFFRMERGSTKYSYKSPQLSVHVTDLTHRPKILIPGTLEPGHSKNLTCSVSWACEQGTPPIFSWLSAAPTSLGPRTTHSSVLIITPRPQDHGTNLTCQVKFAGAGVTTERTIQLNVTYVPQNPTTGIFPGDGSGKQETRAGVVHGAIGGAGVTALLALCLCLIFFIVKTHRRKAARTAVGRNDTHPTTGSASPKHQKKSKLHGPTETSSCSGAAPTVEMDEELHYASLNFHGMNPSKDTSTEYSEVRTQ

Ratio (NFAT-inducible reporter with wild-type MOLM-13 relative to MOLM-13 CD33KO): 2.41 ratio
Testing FP2 Expression (CD33+): 4.14 % of constitutive-fluorescence-positive cells
B1: CD33-CAR4 (other)
chain: EVQLVQSGAEVKKPGSSVKVSCKASGYTITDSNIHWVRQAPGQSLEWIGYIYPYNGGTDYNQKFKNRATLTVDNPTNTAYMELSSLRSEDTAFYYCVNGNPWLAYWGQGTLVTVSSGGGGSGGGGSGGGGSDIQLTQSPSTLSASVGDRVTITCRASESLDNYGIRFLTWFQQKPGKAPKLLMYAASNQGSGVPSRFSGSGSGTEFTLTISSLQPDDFATYYCQQTKEVPWSFGQGTKVEVKRTSSGAAAIEVMYPPPYLDNEKSNGTIIHVKGKHLCPSPLFPGPSKPFWVLVVVGGVLACYSLLVTVAFIIFWVRSKRSRLLHSDYMNMTPRRPGPTRKHYQPYAPPRDFAAYRSRVKFSRSADAPAYQQGQNQLYNELNLGRREEYDVLDKRRGRDPEMGGKPRRKNPQEGLYNELQKDKMAEAYSEIGMKGERRRGKGHDGLYQGLSTATKDTYDALHMQALPPRGS

Ratio (NFAT-inducible reporter with wild-type MOLM-13 relative to MOLM-13 CD33KO): 1.98 ratio
Testing FP2 Expression (CD33+): 17.6 % of constitutive-fluorescence-positive cells
B2: CD33-CAR7 (other)
chain: MELGLSWVVLAALLQGVQAQVQLVQPGGSLRLFCVASEEFFSIYAMGWYRQAPGKQHEMVARFTRDGKITYADSAKGRFTITRDAKNTLNLQMNGLIPEDTAVYYCNINHYWGQGTQVTVSSAAATTTPAPRPPTPAPTIASQPLSLRPEACRPAAGGAVHTRGLDFACDIYIWAPLAGTCGVLLLSLVITLYCKRGRKKLLYIFKQPFMRPVQTTQEEDGCSCRFPEEEEGGCELRVKFSRSADAPAYQQGQNQLYNELNLGRREEYDVLDKRRGRDPEMGGKPRRKNPQEGLYNELQKDKMAEAYSEIGMKGERRRGKGHDGLYQGLSTATKDTYDALHMQALPPR

Ratio (NFAT-inducible reporter with wild-type MOLM-13 relative to MOLM-13 CD33KO): 8.5 ratio
Testing FP2 Expression (CD33+): 28.2 % of constitutive-fluorescence-positive cells
B3: CD33-CAR5 (other)
chain: QVKLEESGGGSVQAGESLRLSCTASGITFRDYDIDWYRQAPGKEREWLATITPSGTTHYPDSVKGRATISRDSAKNTVYLQMNSLKPEDTARYECNTLAYWGSGTQVTVSSAAATTTPAPRPPTPAPTIASQPLSLRPEACRPAAGGAVHTRGLDFACDIYIWAPLAGTCGVLLLSLVITLYCKRGRKKLLYIFKQPFMRPVQTTQEEDGCSCRFPEEEEGGCELRVKFSRSADAPAYQQGQNQLYNELNLGRREEYDVLDKRRGRDPEMGGKPRRKNPQEGLYNELQKDKMAEAYSEIGMKGERRRGKGHDGLYQGLSTATKDTYDALHMQALPPR

Ratio (NFAT-inducible reporter with wild-type MOLM-13 relative to MOLM-13 CD33KO): 3.6 ratio
Testing FP2 Expression (CD33+): 22.9 % of constitutive-fluorescence-positive cells
B4: CD33-CAR6 (other)
chain: QVQLVETGGGLVRAGGSLRLSCAASGRTADIYNIGWFRQAPGKEREFVAAITWIGRTPYYADAVKGRFAFSTDSAKNTVSLQMDNLKPEDTGVYYCNAAHYLEGNTDYYWGQGTQVTVSSAAATTTPAPRPPTPAPTIASQPLSLRPEACRPAAGGAVHTRGLDFACDIYIWAPLAGTCGVLLLSLVITLYCKRGRKKLLYIFKQPFMRPVQTTQEEDGCSCRFPEEEEGGCELRVKFSRSADAPAYQQGQNQLYNELNLGRREEYDVLDKRRGRDPEMGGKPRRKNPQEGLYNELQKDKMAEAYSEIGMKGERRRGKGHDGLYQGLSTATKDTYDALHMQALPPR

Ratio (NFAT-inducible reporter with wild-type MOLM-13 relative to MOLM-13 CD33KO): 1.44 ratio
Testing FP2 Expression (CD33+): 3.9 % of constitutive-fluorescence-positive cells
B5: CD33-CAR3 (other)
chain: QVQLVQSGAEVKKPGSSVKVSCKASGYTFTDYNMHWVRQAPGQGLEWIGYIYPYNGGTGYNQKFKSKATITADESTNTAYMELSSLRSEDTAVYYCARGRPAMDYWGQGTLVTVSSGGGGSGGGGSGGGGSDIQMTQSPSSLSASVGDRVTITCRASESVDNYGISFMNWFQQKPGKAPKLLIYAASNQGSGVPSRFSGSGSGTDFTLTISSLQPDDFATYYCQQSKEVPWTFGQGTKVEIKSGAAAIEVMYPPPYLDNEKSNGTIIHVKGKHLCPSPLFPGPSKPFWVLVVVGGVLACYSLLVTVAFIIFWVRSKRSRLLHSDYMNMTPRRPGPTRKHYQPYAPPRDFAAYRSRVKFSRSADAPAYQQGQNQLYNELNLGRREEYDVLDKRRGRDPEMGGKPRRKNPQEGLYNELQKDKMAEAYSEIGMKGERRRGKGHDGLYQGLSTATKDTYDALHMQALPPRGS
